What was measured:
[1] = biological target: Fc hole chain with F405K (Y349C/T366S/L368A/Y407V/F405K), of mutants KiHss-Kh, KiHss-AkKh and KiHss-KkKh (human); test: non-reducing SDS-PAGE of co-expressed chains; scFv-Fc chain (A) and Fc chain (B) co-transfected 1:1 in HEK 293H; secreted Fcs purified by Protein A; disulphide-linked dimers AA, AB and BB told apart by size and quantified by densitometry (ImageLab)
[2] = biological target: Fc hole chain of mutant KiHss (Y349C/T366S/L368A/Y407V) (human); test: as above

Substance | heterodimeric Fc (AB), percent of total Fcs [1] [%] | heterodimeric Fc (AB), percent of total Fcs [2] [%]
scFv-Fc knob chain of mutant KiHss-AkKh (S354C/T366W/K409A) (Fc fusion) | 94 | –
scFv-Fc knob chain of mutant KiHss (S354C/T366W) (Fc fusion) | > 80 | 73
scFv-Fc knob chain with F405K (S354C/T366W/F405K), of mutants KiHss-Kk and KiHss-KkKh (Fc fusion) | – | > 80

Reference: paper PMC5584228
